Assay results published in article PMC3919030 (Journal of molecular biology, 2013).
Substitutions are numbered along the chain they refer to. In names and notes the source's numbering stands.

T1: S. cerevisiae Vps4p (wild type) (S. cerevisiae, UniProt P52917 1-437)
T1 sequence (looked up): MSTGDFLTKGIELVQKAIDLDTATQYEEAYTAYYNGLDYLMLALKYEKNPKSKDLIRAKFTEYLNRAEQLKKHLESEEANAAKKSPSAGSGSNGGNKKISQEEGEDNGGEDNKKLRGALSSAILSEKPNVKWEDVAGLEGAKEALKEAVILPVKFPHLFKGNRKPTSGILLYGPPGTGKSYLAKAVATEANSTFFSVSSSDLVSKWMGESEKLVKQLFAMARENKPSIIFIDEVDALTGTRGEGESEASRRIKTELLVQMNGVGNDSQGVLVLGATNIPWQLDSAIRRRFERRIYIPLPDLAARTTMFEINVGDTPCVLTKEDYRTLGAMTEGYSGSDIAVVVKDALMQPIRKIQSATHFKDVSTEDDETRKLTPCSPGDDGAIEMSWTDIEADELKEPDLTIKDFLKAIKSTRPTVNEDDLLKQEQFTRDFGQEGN

B1: S. cerevisiae Vta1p (natural protein, UniProt Q06263 1-330, looked up)
chain: MASNAARVVATAKDFDKVGLGIIGYYLQLYAVELILSEEDRSQEMTALATELLDTIEAFKKEIGGESEAEDSDKSLHVMNTLIHDQEKAKIYMLNFTMSLYNEKLKQLKDGPWDVMLKRSLWCCIDLFSCILHLWKENISETSTNSLQKRIKYCKIYLSKLAKGEIGSSDEKTLDYADFADDSEEIKDEDVDHQTSDLENNNNDKVEGLAPKDQTTSYEPVDEVPEFIDDADSVNEEEQTVDKNEDAITKDEQQVVKKEVDLTRPSAPSEPAAAEHKSYTKDELTKIMDRASKIEQIQKLAKYAISALNYEDLPTAKDELTKALDLLNSI
B2: Sulfolobus solfataricus Vps4 (SsoVps4, wild type) (enzyme, UniProt Q97ZJ7 1-372, looked up)
chain: MSAQVMLEDMARKYAILAVKADKEGKVEDAITYYKKAIEVLSQIIVLYPESVARTAYEQMINEYKKRISYLEKVLPASSDGSGDNTSPPEEVVITEKPKVSFKDIVGLDDVKEALREAIIYPTKRPDLFPLGWPRGILLYGPPGCGKTMIAAAVANEIDSIFMQLDAASVMSKWLGEAEKNVANVFKMAREESKKQNKPAIIFIDELDALLGVYSTEVGGEARVRNQFLKEMDGLLDKSENYKVYVIGATNKPWRLDEAFLRRFQKRIYVPLPDYEQRLSLFKYYTSKIKLDTEVSLEELAKLTEGYTASDIRDIVQAAHIKVVKEMFKNNLGEPRTITLQDFKDILKVRMPSVNPELIKAYEAWTEKFKAL
B3: SsoVps4(R263A) (enzyme, Sulfolobus solfataricus, UniProt Q97ZJ7 1-372, looked up)
chain: B2 chain with R263A
B4: SsoVps4(E206Q) (enzyme, Sulfolobus solfataricus, UniProt Q97ZJ7 1-372, looked up)
chain: B2 chain with E206Q
B5: SsoVps4(R262A) (enzyme, Sulfolobus solfataricus, UniProt Q97ZJ7 1-372, looked up)
chain: B2 chain with R262A
B6: SsoVps4(F328A) (enzyme, Sulfolobus solfataricus, UniProt Q97ZJ7 1-372, looked up)
chain: B2 chain with F328A
B7: SsoVps4(85-372, E206Q) (domain or fragment, Sulfolobus solfataricus, UniProt Q97ZJ7 85-372, looked up)
chain: NTSPPEEVVITEKPKVSFKDIVGLDDVKEALREAIIYPTKRPDLFPLGWPRGILLYGPPGCGKTMIAAAVANEIDSIFMQLDAASVMSKWLGEAEKNVANVFKMAREESKKQNKPAIIFIDQLDALLGVYSTEVGGEARVRNQFLKEMDGLLDKSENYKVYVIGATNKPWRLDEAFLRRFQKRIYVPLPDYEQRLSLFKYYTSKIKLDTEVSLEELAKLTEGYTASDIRDIVQAAHIKVVKEMFKNNLGEPRTITLQDFKDILKVRMPSVNPELIKAYEAWTEKFKAL
modifications: selenomethionine-substituted
B8: S. cerevisiae Vps4p(E233Q) (enzyme, UniProt P52917 1-437, looked up)
chain: T1 sequence (looked up) with E233Q

Columns and labels:
[1] = target: B8; assay: SEC
[2] = target: T1, S. cerevisiae Vps4p (wild type); assay: SEC
SEC [3] = target: the molecule itself; assay: SEC
AUC = target: the molecule itself; assay: AUC
SEC [4] = target: the molecule itself; assay: SEC; remark: listed apart in the source
SEC [5] = target: the molecule itself; assay: SEC; remark: listed apart in the source
crystal structure = target: the molecule itself; assay: crystal structure
SEC [6] = target: the molecule itself; assay: SEC; remark: listed apart in the source
SEC [7] = target: the molecule itself; assay: SEC; remark: listed apart in the source

## B1
[1]
  binding result: binds
[2]
  binding result: binds

## B2
SEC [3]
  stoichiometry N: 12
AUC
  stoichiometry N: 6
SEC [4]
  stoichiometry N: ~6

## B3
SEC [5]
  binding result: binds

## B4
SEC [3]
  stoichiometry N: 12
SEC [4]
  stoichiometry N: ~6

## B5
SEC [5]
  binding result: binds

## B6
SEC [4]
  stoichiometry N: 2

## B7
Crystal structure
  binding result: binds

## B8
SEC [6]
  stoichiometry N: 12
SEC [7]
  stoichiometry N: 6
